Data taken from the supplement of paper PMC5998384.

Assays:
HeLa Kyoto [1] = test: solubility change mitosis vs G1/S (difference of NP-40 vs SDS log2 ratios) (log2 ratio difference); higher = more soluble in mitosis
HeLa Kyoto [2] = test: melting temperature (median over replicates), in situ; higher = more thermally stable
HeLa Kyoto [3] = test: thermal stability score vs G1/S (z-score of summed log2 fold changes over temperatures); higher = more thermally stable than in G1/S
HeLa Kyoto [4] = test: solubility in G1/S (NP-40 vs SDS abundance) (log2 ratio); higher = more soluble; details: cell cycle stage: G1/S
[5] = cell cycle stage: early G1 (4.5 h after nocodazole release)
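Throughout, for melting temperature (median over replicates), in situ: HeLa Kyoto cells synchronized by double thymidine or nocodazole block, proteins quantified by TMT10plex mass spectrometry, three independent biological replicates.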
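Throughout, for solubility change mitosis vs G1/S (difference of NP-40 vs SDS log2 ratios): synchronized HeLa Kyoto cells (double thymidine block for G1/S, nocodazole release for mitosis), protein amounts in NP-40 versus SDS lysates quantified by mass spectrometry, three biological replicates.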
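Throughout, for solubility in G1/S (NP-40 vs SDS abundance): HeLa Kyoto cells arrested at G1/S by double thymidine block, proteins quantified by TMT10plex mass spectrometry in mild NP-40 versus SDS extracts, three biological replicates.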
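Throughout, for thermal stability score vs G1/S (z-score of summed log2 fold changes over temperatures): synchronized HeLa Kyoto cells, proteins quantified by TMT10plex mass spectrometry, three biological replicates, mitosis taken 0.5 h after nocodazole release, G1/S directly after double thymidine block.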

Chain of SDHA (chain, as listed by the source): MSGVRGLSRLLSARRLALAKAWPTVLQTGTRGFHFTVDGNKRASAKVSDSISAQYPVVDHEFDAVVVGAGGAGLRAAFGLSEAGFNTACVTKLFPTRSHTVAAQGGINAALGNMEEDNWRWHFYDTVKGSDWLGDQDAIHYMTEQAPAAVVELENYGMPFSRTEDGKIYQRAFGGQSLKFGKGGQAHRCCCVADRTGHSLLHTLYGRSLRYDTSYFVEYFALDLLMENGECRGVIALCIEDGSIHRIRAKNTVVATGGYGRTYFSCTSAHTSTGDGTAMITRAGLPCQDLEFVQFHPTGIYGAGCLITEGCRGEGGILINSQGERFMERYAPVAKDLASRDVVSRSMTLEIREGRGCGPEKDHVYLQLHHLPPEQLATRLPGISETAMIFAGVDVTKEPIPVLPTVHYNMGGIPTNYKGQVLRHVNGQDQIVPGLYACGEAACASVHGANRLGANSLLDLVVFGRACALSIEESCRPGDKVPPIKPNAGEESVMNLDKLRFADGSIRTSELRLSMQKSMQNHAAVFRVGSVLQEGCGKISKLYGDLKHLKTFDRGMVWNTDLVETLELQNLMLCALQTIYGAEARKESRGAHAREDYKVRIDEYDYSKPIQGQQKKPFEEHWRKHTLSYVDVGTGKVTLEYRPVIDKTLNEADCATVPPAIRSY
Chain of SLC7A2 (chain, as listed by the source): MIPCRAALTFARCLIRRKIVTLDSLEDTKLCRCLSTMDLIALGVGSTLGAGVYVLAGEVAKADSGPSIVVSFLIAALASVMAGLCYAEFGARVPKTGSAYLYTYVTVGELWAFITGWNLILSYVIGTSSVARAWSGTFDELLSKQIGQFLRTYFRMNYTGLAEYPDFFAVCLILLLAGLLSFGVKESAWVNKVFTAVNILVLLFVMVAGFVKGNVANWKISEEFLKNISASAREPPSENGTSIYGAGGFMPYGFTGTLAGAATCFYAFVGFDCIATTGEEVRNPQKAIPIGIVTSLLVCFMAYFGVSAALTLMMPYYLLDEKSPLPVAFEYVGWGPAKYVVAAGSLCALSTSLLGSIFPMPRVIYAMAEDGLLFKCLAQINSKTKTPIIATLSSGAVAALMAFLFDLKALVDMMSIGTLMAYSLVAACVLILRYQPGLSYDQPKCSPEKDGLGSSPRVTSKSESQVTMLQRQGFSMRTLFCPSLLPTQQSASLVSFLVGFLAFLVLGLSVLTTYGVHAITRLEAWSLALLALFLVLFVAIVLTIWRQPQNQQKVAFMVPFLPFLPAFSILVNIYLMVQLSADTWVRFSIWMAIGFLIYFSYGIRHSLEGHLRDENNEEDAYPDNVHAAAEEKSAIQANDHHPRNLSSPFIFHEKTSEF
Chain of PPIE (chain, as listed by the source): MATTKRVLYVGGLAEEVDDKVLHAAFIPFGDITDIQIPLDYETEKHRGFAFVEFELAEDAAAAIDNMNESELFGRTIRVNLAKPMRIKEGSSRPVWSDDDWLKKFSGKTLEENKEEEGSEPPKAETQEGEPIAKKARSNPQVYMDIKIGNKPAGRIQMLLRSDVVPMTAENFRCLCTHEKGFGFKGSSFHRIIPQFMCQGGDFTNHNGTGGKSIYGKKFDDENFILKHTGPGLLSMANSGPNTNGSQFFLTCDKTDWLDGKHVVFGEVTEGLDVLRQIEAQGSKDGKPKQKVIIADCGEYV
Chain of PRSS21 (chain, as listed by the source): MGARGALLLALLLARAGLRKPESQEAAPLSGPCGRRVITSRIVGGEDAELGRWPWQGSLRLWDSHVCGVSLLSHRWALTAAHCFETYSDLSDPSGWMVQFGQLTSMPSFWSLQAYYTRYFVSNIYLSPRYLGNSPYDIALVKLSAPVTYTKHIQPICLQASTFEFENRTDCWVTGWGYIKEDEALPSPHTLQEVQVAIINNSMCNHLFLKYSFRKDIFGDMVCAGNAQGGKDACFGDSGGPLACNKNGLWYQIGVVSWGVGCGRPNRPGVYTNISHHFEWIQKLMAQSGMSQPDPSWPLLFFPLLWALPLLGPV
Chain of PPIB (chain, as listed by the source): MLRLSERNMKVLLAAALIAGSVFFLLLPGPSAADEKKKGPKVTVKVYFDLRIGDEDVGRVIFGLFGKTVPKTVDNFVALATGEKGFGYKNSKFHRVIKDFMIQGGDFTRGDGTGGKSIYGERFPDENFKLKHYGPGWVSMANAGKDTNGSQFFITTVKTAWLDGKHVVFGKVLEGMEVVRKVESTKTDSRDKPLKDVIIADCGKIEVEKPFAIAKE
Chain of PNN (chain, as listed by the source): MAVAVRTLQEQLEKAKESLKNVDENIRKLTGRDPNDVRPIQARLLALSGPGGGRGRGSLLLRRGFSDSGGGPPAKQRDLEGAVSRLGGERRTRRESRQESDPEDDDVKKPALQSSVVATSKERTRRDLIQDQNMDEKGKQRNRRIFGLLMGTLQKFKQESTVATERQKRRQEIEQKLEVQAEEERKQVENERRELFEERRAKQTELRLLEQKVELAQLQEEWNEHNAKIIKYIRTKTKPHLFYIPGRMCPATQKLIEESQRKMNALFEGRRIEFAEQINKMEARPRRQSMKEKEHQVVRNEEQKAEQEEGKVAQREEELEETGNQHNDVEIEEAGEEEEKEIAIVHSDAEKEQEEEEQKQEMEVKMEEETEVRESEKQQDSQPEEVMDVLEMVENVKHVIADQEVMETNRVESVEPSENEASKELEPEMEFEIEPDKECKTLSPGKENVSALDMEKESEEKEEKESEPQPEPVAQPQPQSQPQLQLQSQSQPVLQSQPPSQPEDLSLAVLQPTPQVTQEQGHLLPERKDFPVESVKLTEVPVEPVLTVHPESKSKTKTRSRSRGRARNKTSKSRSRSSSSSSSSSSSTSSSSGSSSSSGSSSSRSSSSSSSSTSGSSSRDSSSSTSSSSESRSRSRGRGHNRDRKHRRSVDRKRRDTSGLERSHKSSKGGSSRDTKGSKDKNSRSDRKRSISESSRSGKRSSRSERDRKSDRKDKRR
Chain of PPIC (chain, as listed by the source): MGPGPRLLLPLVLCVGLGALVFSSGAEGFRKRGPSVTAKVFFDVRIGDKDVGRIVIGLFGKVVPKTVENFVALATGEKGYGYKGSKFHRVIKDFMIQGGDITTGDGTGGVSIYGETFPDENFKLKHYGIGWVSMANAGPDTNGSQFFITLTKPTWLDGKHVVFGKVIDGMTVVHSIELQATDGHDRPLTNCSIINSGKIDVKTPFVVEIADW
Chain of PTBP3 (chain, as listed by the source): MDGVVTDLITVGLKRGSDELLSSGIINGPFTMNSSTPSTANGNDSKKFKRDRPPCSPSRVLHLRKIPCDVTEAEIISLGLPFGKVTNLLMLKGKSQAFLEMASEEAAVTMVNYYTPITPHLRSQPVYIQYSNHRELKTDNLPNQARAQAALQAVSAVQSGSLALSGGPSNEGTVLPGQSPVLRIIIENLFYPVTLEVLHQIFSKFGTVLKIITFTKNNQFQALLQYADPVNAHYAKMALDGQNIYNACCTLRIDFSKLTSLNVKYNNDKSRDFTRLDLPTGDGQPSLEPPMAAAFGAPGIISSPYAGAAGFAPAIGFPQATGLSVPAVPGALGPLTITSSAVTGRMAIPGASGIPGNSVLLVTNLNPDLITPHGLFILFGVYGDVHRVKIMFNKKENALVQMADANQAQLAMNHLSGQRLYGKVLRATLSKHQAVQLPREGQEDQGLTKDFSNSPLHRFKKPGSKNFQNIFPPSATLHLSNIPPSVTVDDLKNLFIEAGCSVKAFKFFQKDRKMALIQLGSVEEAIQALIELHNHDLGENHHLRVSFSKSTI
Chain of PNO1 (chain, as listed by the source): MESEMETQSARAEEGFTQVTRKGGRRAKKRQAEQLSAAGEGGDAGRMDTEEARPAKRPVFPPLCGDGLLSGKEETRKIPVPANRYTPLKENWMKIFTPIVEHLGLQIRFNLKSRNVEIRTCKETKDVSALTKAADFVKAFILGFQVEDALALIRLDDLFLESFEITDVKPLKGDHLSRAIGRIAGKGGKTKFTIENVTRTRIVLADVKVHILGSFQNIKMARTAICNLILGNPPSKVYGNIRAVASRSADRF

Substance	solubility change mitosis (log2) (HeLa Kyoto [1])	melting temperature (HeLa Kyoto [2]; cell cycle stage: G1/S) [°C]	melting temperature (HeLa Kyoto [2]; cell cycle stage: mitosis) [°C]	thermal stability score (HeLa Kyoto [3]; [5])	thermal stability score (HeLa Kyoto [3]; cell cycle stage: mitosis)	solubility in G1/S (log2) (HeLa Kyoto [4])
PKM	-0.106	57.8	57.4	-2.6	-2.54	0.116
PLEC	0.643	53.2	52.7	-8.96	-8.24	-2.57
PNKP	-0.0487	48.6	49.3	0.324	1.25	0.193
PNN	0.808	48.6	50	0.124	3.19	-1.25
PNO1	0.449	50.3	50	0.178	0.628	-0.779
PPIB	0.0983	53.8	54.4	4.65	4.71	0.0181
PPIC	-0.103	53.6	53.4	1.01	-0.315	0.0897
PPIE	0.13	49	51.7	1.18	2.29	0.351
PPIF	0.14	52.2	52.1	0.427	-1.83	0.731
PPP2R5A	-0.192	50.8	50.5	0.702	1.43	0.0389
PRRC2C	0.111	55.6	55.2	-0.644	-2.2	-0.328
PRSS21	-0.176	52.9	52.9	0.469	0.197	0.0531
PTBP3	0.15	46.6	48	0.736	1.3	-0.19
RAB14	-0.0891	60.6	58.8	-1.89	-3.07	0.0669
RALGAPB	-0.169	50.2	51	-1.55	-1.73	-0.0337
RAPGEF2	-0.144	50.8	–	-0.581	-1.21	-0.143
RHOG	-0.00567	55.9	55.2	-1.81	-2.65	0.562
SAMD9	-0.171	47.5	49.2	0.5	1.68	-0.156
SAR1B	-0.182	52.3	53.4	0.15	0.55	-0.00727
SDHA	-0.0448	54.7	56.4	1.89	2.23	-0.11
SLC7A2	-0.149	55.5	57	-3.64	-8.3	0.0385
SLC7A5	-0.0332	60.4	57.8	-2.12	-3.93	0.0865
SMCHD1	-0.104	47.4	48.7	3.02	5.78	-0.216
SPTAN1	0.485	53	51.5	-0.312	-1.93	-0.956
SPTBN2	0.477	51.8	50.8	0.264	-0.194	-1.02
SRGAP2	0.0509	50	50.5	0.993	0.737	0.0333
SRRM2	0.682	48.3	50.2	-1.58	5.67	-0.81
